Reference: patent US20100075326A1 (CORNELL UNIVERSITY, published 2010)

Columns and labels:
[1] = biological target: T1, Botulinum neurotoxin serotype A light chain protease (BoNT/A-LC), YS2H bait fused to Aga2 with C-terminal … (yeast, UniProt P0DPI0 1-448); assay: predicted from YS2H (flow cytometry of Myc and FLAG tags, Langmuir equation)
T1 construct: range 1-448

[2] = biological target: T2, Botulinum neurotoxin serotype A light chain protease (BoNT/A-LC), soluble, hexahistidine tags at both termini (UniProt P0DPI0 1-448); assay: SPR (Biacore), A-LC injected over G6-coated chip
T2 construct: range 1-448

[3] = biological target: T2, Botulinum neurotoxin serotype A light …; assay: SPR (Biacore), G6 compared with B8 on A-LC
[4] = biological target: T2, Botulinum neurotoxin serotype A light …; assay: SPR (Biacore), A-LC injected over G6-coated chip; remark: listed apart in the source
[5] = biological target: T2, Botulinum neurotoxin serotype A light …; assay: SPR (Biacore), A-LC injected over B8-coated chip
[6] = biological target: T2, Botulinum neurotoxin serotype A light …; assay: SPR (Biacore), A-LC injected over B8-coated chip; remark: listed apart in the source

B1: VHH-G6, secreted YS2H prey with C-terminal Myc tag (VHH)
VHH: HVQLQQSGGGLVQPGGSLRLSCAASGFTLDYYAIGWFRQAPGKEREGVSCISSSGGSTYYADSVKGRFTISRDNAKNTVYLQMNSLKPEDTAVYYCAVAQSCLRGGVRGGYWGQGTQVTVSS
Kd [1]: 143 nM

B2: VHH-G6, soluble, from E. coli (pET20b) (VHH)
VHH: B1 VHH
koff [2]: 0.0182 s⁻¹ | kon [2]: 76100 M⁻¹ s⁻¹ | fold difference in affinity against B8 [3]: 100 fold | fold difference in association rate against B8 [3]: 3 fold | fold difference in dissociation rate against B8 [3]: 34 fold | Kd [4]: 230 nM

B3: VHH-B8, secreted YS2H prey with C-terminal Myc tag (VHH)
VHH: HVQLQQSGGGLVQPGGSLRLSCAASGSIFSIYAMGWYRQAPGKQRELVAAISSYGSTNYADSVKGRFTISRDNAKNTVYLQMNSLKPEDTAVYYCNADIATMTAVGGFDYWGQGTQVTVSS
Kd [1]: 38.2 nM

B4: VHH-B8, soluble, from E. coli (pET20b) (VHH)
VHH: B3 VHH
Kd [5]: 2.3 nM | koff [6]: 0.000518 s⁻¹ | kon [6]: 226000 M⁻¹ s⁻¹
